Like-named read-outs stand apart in the source and are kept apart here.
What was measured:
[1] = target: T1, biotinylated human IL-2 immobilized on streptavidin-coated tips (human, UniProt P60568 21-153, biotinylated (site not stated)); test: bio-layer interferometry equilibrium titration, biotinylated hIL-2 on streptavidin tips
T1 construct: The construct used for biotinylated hIL-2 is not described; probably as the soluble hIL-2 (residues 1-133) with tags; also called biotinylated hIL-2; immobilized hIL-2; not shown: tags of the biotinylated hIL-2 are not described (the biotin acceptor peptide is told only for hIL-2Ra and hIL-2Rb)
Description: (§1) Less than 5 signal units (nm) of receptor was immobilized to minimize mass transfer effects. […] Surface regeneration for all interactions was conducted using a 15 second exposure to 0.1 M glycine pH 3.0. Experiments were carried out in PB SA (phosphate-buffered saline, pH 7.3 plus 0.1% bovine serum albumin (BSA, Thermo Fisher Scientific)) at 25° C. Data was visualized and processed using the Octet® Data Analysis software version 7.1 (Molecular Devices). Equilibrium titration curve fitting and KD value determination was implemented using GraphPad Prism, assuming all binding interactions to be first order.

[2] = target: T1, biotinylated human IL-2 immobilized on …; test: as above; remark: listed apart in the source
Description: as §1

[3] = target: human IL-2 (residues 1-133) displayed on the surface of yeast (human, UniProt P60568 21-153); test: titration of soluble antibody on yeast-displayed hIL-2, flow cytometry; apparent bivalent affinity
Description: After a final wash, cells were analyzed for antibody binding using a CytoFLEX flow cytometer (Beckman Coulter). Background-subtracted and normalized binding curves were fitted to a first-order binding model and equilibrium dissociation constant (KD) values were determined using GraphPad Prism.
After a 3-day incubation, secreted protein was captured from the supernatant with protein G resin, eluted with 0.1 M glycine pH 2.0, and analyzed via SDS-PAGE. […] Immunocytokine expression was scaled up in HEK 293F cells and the secreted protein was purified via protein G affinity chromatography followed by size-exclusion chromatography.

T1 sequence (P60568 21-153): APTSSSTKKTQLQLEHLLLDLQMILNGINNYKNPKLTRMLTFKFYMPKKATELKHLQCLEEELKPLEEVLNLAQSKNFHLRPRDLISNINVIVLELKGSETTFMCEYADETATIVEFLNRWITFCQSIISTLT
human IL-2 (residues 1-133) displayed on the surface of yeast, sequence (P60568 21-153 limits assumed): as the sequence (P60568 21-153) above

B1: recombinant F5111 antibody (human IgG1 lambda) (antibody, V domains shown)
VH: QLQLQESGPGLVKPSQTLSLTCTVSGGSISSGGYYWSWIRQHPGKGLEWIGYIYYSGSTYYNPSLKSRVTISVDTSKNQFSLKLSSVTAADTAVYYCARTPTVTGDWFDPWGRGTLVTVSS
VL: SNFMLTQPHSVSESPGKTVTISCTRSSGSIASNYVQWYQQRPGSSPTTVIYEDNQRPSGVPDRFSGSIDSSSNSASLTISGLKTEDEADYYCQSYDSSNVVFGGGTKLTVLG
notes: Expressed in HEK 293F cells; also called F5111 Ab; monoclonal antibody F5111
For B1, the “EC50 (read off the curve)” value [1] was ~0.6 nM, the “EC50 (read off the curve)” value [2] was ~3 nM and the Kd [3] was 0.42 nM.
